Data: patent US20220064294A1

Target: mouse TIGIT, full length, on CHO-K1 cells (mouse) (UniProt P86176)
Test: flow cytometry, CHO-K1 cells transiently transfected with mouse TIGIT; target taken from the legend paragraph 32 and from paragraph 286 (FIG. 4A = mouse TIGIT); paragraph 286 however names GNE10A7, not G1GD7, as the control for mouse TIGIT

mouse TIGIT, full length, on CHO-K1 cells (mouse), sequence (P86176 29-249 limits assumed): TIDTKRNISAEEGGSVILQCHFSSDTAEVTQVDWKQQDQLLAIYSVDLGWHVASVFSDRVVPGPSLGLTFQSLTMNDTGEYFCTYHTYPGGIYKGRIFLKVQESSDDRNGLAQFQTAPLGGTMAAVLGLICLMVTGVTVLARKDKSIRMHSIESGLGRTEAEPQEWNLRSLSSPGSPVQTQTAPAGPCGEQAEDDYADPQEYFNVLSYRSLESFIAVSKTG

In the case of eBioscience G1GD7 (antibody), the EC50 (read off the curve) is reported as 0.8 nM.
